{"source": "paper PMC5469197", "about": "“ANGUSTIFOLIA, a Plant Homolog of CtBP/BARS Localizes to Stress Granules and Regulates Their Formation” (Frontiers in Plant Science, 2017)", "binders": {"B1": {"name": "AN, Renilla luciferase fusion (LUMIER) (natural protein, Arabidopsis thaliana, UniProt O23702 1-636, looked up)", "chain": "MSKIRSSATMPHRDQPSPASPHVVTLNCIEDCALEQDSLAGVAGVEYVPLSRIADGKIESATAVLLHSLAYLPRAAQRRLRPHQLILCLGSADRAVDSTLAADLGLRLVHVDTSRAEEIADTVMALILGLLRRTHLLSRHALSASGWLGSLQPLCRGMRRCRGMVLGIVGRSVSARYLASRSLAFKMSVLYFDVPEGDEERIRPSRFPRAARRMDTLNDLLAASDVISLHCALTNDTVQILNAECLQHIKPGAFLVNTGSCQLLDDCAVKQLLIDGTIAGCALDGAEGPQWMEAWVKEMPNVLILPRSADYSEEVWMEIREKAISILHSFFLDGVIPSNTVSDEEVEESEASEEEEQSPSKHEKLAIVESTSRQQGESTLTSTEIVRREASELKESLSPGQQHVSQNTAVKPEGRRSRSGKKAKKRHSQQKYMQKTDGSSGLNEESTSRRDDIAMSDTEEVLSSSSRCASPEDSRSRKTPLEVMQESSPNQLVMSSKKFIGKSSELLKDGYVVALYAKDLSGLHVSRQRTKNGGWFLDTLSNVSKRDPAAQFIIAYRNKDTVGLRSFAAGGKLLQINRRMEFVFASHSFDVWESWSLEGSLDECRLVNCRNSSAVLDVRVEILAMVGDDGITRWID", "notes": "ANGUSTIFOLIA (AN), Arabidopsis thaliana, AT1G01510; CDS amplified from Col-0 cDNA; in the dimerisation test the second copy must have been the N-terminal protein A fusion (surmised from the LUMIER format); also called wild-type AN; source: HEK293TN cells, transfected; not shown: Renilla reniformis luciferase, N-terminal, kept"}}, "assay_in_all_cases": "co-IP; LUMIER in HEK293TN cells: Prot-A fusion co-transfected with Renilla luciferase fusion (AN always the luciferase fusion with the interactors); luciferase activity before (input) and after pulldown; percentage pulldown = pulldown/input x 100; empty vectors as negative control; positive if more than two times the background", "key": {"[1]": {"molecular_target": "PROTEIN KINASE SU… PROTEIN (AIK1), Prot-A fusion (Arabidopsis thaliana)", "sequence (main, as listed by the source)": "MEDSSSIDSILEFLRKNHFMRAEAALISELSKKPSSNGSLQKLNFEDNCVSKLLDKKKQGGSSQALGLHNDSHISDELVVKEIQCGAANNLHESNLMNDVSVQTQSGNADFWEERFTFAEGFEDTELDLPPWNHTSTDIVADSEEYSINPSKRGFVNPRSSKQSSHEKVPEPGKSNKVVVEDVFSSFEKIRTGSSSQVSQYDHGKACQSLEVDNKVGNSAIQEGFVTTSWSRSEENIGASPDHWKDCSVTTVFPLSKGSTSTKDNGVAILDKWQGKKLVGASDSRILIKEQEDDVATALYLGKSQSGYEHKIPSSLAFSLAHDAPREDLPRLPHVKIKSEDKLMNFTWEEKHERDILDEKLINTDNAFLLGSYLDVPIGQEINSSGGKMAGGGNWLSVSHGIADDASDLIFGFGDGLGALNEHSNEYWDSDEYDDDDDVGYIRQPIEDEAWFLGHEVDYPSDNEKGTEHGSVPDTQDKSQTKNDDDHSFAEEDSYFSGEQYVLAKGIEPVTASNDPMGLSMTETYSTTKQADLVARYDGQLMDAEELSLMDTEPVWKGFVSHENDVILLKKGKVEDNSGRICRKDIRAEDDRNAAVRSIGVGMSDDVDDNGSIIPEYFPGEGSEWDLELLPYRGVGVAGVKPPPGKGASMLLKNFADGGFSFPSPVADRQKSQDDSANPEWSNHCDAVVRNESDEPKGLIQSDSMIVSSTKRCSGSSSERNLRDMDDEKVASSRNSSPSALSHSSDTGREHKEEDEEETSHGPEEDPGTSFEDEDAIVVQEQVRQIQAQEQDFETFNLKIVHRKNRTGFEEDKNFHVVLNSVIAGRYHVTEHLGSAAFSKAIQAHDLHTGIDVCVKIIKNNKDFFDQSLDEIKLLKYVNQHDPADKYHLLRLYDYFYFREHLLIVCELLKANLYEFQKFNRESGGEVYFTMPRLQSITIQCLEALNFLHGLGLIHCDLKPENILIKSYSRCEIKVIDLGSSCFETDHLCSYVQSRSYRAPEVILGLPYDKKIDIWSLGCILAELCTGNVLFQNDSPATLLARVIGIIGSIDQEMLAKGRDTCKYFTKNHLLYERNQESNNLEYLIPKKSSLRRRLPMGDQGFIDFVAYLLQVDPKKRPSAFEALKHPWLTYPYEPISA"}, "[2]": {"molecular_target": "T1, GLYCINE-RICH RNA-BINDING PROTEIN 2 (GRP2), Prot-A fusion (Arabidopsis thaliana, UniProt Q9SVM8 35-158)", "T1 construct": "CDS amplified from Col-0 cDNA; source: HEK293TN cells, transfected; not shown: Protein A (Staphylococcus aureus), N-terminal, kept", "T1 sequence (looked up)": "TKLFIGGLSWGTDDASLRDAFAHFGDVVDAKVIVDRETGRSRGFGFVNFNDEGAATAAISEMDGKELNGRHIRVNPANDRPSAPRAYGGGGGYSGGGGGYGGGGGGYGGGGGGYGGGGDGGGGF", "settings": "partners not purified"}, "[3]": {"molecular_target": "T2, TANDEM CCCH ZINC FINGER (TZF) ATC3H14, Prot-A fusion (Arabidopsis thaliana, UniProt Q9C9N3 1-310)", "T2 construct": "Tandem CCCH zinc finger protein ATC3H14, Arabidopsis thaliana, AT1G66810; CDS amplified from Col-0 cDNA; source: HEK293TN cells, transfected; not shown: Protein A (Staphylococcus aureus), N-terminal, kept", "T2 sequence (looked up)": "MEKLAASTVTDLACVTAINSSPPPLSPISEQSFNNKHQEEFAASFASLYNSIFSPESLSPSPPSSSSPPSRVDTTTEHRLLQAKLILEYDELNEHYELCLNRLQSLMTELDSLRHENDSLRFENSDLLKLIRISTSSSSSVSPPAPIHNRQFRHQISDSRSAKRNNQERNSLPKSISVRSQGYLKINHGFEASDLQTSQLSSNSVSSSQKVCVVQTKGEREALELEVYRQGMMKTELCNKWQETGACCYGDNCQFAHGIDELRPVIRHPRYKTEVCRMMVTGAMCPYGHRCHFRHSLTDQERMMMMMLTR", "settings": "partners not purified"}, "[4]": {"molecular_target": "T3, PO…-BINDING PROTEIN RBP47C′, Prot-A fusion (Arabidopsis thaliana, UniProt Q9SX80 1-434)", "T3 construct": "RBP47C′, Arabidopsis thaliana, AT1G47500; CDS amplified from Col-0 cDNA; source: HEK293TN cells, transfected; not shown: Protein A (Staphylococcus aureus), N-terminal, kept", "T3 sequence (looked up)": "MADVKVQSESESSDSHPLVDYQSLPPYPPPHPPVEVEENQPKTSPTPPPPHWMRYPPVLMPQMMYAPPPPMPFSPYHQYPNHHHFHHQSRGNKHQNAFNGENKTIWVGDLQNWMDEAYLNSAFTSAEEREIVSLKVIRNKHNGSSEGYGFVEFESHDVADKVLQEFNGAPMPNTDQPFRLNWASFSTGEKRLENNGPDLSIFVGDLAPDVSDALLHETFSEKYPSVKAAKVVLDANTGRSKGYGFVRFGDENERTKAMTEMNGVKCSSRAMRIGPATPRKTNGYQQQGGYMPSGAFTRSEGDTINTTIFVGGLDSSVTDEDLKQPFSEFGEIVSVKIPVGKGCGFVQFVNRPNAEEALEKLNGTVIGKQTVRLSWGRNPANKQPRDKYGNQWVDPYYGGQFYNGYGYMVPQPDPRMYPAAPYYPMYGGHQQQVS", "settings": "partners not purified"}, "[5]": {"molecular_target": "T4, RNA BINDING PROTEIN 47B (RBP47B), Prot-A fusion (Arabidopsis thaliana, UniProt Q0WW84 1-435)", "T4 construct": "RBP47B, Arabidopsis thaliana, AT3G19130; CDS amplified from Col-0 cDNA; source: HEK293TN cells, transfected; not shown: Protein A (Staphylococcus aureus), N-terminal, kept", "T4 sequence (looked up)": "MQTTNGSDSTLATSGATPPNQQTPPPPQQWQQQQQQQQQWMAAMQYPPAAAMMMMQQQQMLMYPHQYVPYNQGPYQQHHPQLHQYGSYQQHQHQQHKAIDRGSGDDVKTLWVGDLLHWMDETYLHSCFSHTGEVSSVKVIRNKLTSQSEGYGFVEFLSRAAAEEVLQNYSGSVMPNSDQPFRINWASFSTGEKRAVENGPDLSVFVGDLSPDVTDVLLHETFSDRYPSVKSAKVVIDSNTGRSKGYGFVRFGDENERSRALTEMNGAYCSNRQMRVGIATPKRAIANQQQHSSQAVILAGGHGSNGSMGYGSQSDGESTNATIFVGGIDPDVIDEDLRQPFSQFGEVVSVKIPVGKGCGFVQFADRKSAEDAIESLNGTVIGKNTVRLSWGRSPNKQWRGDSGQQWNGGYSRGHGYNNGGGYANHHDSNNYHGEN", "settings": "partners not purified"}}, "data": [{"binder": "B1", "values": [{"measurement": "fold change from background", "setting": "[1]", "value": 223, "unit": "fold"}, {"measurement": "percentage pulldown", "setting": "[1]", "value": 36, "unit": "%"}, {"measurement": "fold change from background", "setting": "[2]", "value": 2.52, "unit": "fold"}, {"measurement": "percentage pulldown", "setting": "[2]", "value": 0.24, "unit": "%"}, {"measurement": "fold change from background", "setting": "[3]", "value": 4.92, "unit": "fold"}, {"measurement": "percentage pulldown", "setting": "[3]", "value": 0.47, "unit": "%"}, {"measurement": "fold change from background", "setting": "[4]", "value": 3.07, "unit": "fold"}, {"measurement": "percentage pulldown", "setting": "[4]", "value": 0.29, "unit": "%"}, {"measurement": "fold change from background", "setting": "[5]", "value": 3.53, "unit": "fold"}, {"measurement": "percentage pulldown", "setting": "[5]", "value": 0.33, "unit": "%"}]}]}
